The values that follow come from article doi:10.1101/2024.12.09.627393.

Assay [1] has as its target H3Tetra^ac nucleosome (UniProt P68431). Put plainly: AlphaScreen or HTRF; dCypher: GST-CECR2-BRD titrated against PTM-defined nucleosomes (10 nM); glutathione Acceptor and streptavidin Donor beads; 20 mM Tris pH 7.5, 250 mM NaCl, 0.01% NP-40, 0.01% BSA, 1 mM DTT; room temperature; relative EC50 (EC50^rel).
Assay [2] deals with H4Tetra^ac nucleosome (UniProt P68431). The description is as above.

Usually EC50 stands for the concentration that produces a half-maximal response. A high value points to a need for much substance.

GST-CECR2-BRD (GST tag retained, for dCypher assays), sequence (Q9BXF3 424-538): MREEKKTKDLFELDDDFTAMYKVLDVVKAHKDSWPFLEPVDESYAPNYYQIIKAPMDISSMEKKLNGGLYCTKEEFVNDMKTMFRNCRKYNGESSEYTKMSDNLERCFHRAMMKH

For “GST-CECR2-BRD (GST tag retained, for dCypher assays) (from UniProt Q9BXF3-1 424-538) (domain or fragment)”, the EC50 in assay [1] was found to be 6 nM; in assay [2], 9.2 nM.
